# Test: soluble on expression in E. coli; label from the status in PepcDB or PDB records
row,Sequence,soluble on expression in E. coli
1,MSLKRNNVNVVNRTKNSNPEFRIPLHYKHKIPFVLSDAIERNHDQDLTAEVHFYLALPPERCRRIYKSRRKALNAMLRAILYHVNVISKQVPISATMLTEYCGLTTISAAGNKSVTRGTRTLAMLRDLGFITYRQCWDRVSRRYFPSAIAVTERLIDLVGICPERWRTELNNKLANYNHKIFKKEGITLNEYDYARNLREDQLKRSYMYHSNRKEIKKKKKEATRLEKLVKIKGENELRHLISRQVSEEFLKGFIPGAQLKDLKKIVDKRINTLKKIAKSLHEGHHHHHH,not soluble
2,MGVPFIRFLNITFDRRGDELTGVLNFDDKLIGNPFLPAIHGGVTAAFLEVTAVITLSWAHLFERIESGDLAPEDILTDENMRFPKTIDFTIDYLRSGLPRDAYARAYISRAGRRYASVRVEAWQDHHDKLYAQGTGHFLMPLEHHHHHH,soluble
3,MNVAKNRKEKIAGLFLMCPGSGLDMNFVNTIQPGALQYLMKKGSINYPASKNGYPALLTVECLEEFLNTDISKTSPKVIDIQCPVLTVHGIEDNIVPVENSKKLMQRMASTYKDFHRIPGVDHNFDLDEEVLKRLGQLMDVIRENESKKLKAKI,not soluble
4,MSDFLKLVGENIRFLRKKRGLTQEELAEQINLQQAYIGGVERGERNISMLTLQKIAVGLEVSPDEVLNFSNVNLIDNPQREESLSIITSLLHQKNVNELQFILKFLYNFSEFVESNSNK,not soluble
5,MGSDKIHHHHHHMVQNTFSDFDVSGFWDDSAYSIEEYVEETPTDALIDSIEQELGYKLPASYIELMKQHNGGTPVNCCFPVTEETSGTEYHVEISGIMGIGRSKTYSLGGSFGSRFMIDEWGYPDTGIYVCTCPSAGHEMILLDYSICGPKGEPQVFYVDQEREYQKTFLAKDFETFIRGLVHADVYDTSAQDLISTLETFRTGNFSEVLQAYIKKDLSVNFDRVLRNLFTELTTEKGYFALHADELSYLSYDIQFYLLSINRKIKSKEDFVKHYLPMVAMSDAGITTGGYANFFEDWFDEKIKSKEITKGLLSGFLFTEIYKQKLFERIKQYDK,not soluble
6,MGSDKIHHHHHHMQGAQSTVDTQSESLNADRSASVDGHPIIVGAFINMYQQLNKDNLFLLRQVYRDDICFRDPMHHVEGIEALTDYFANMYQNVTHIEFDIKEVVISADKQQAALYWTMSYSHPKLSKGQLINVEGMSQLKFSDKIFSHRDYFDLGQMLYEQVPFLGGLIGLLKNRVTK,not soluble
7,MKRANAVKLIVGKETHEKLKELAIVAAKCWNEVNWLRMQQFKEGERVDFSKTEKEVYEKYKQILKVNTQQVARKNAESWRSFFSLIEEKKGKLPKWFKPRPPGYWKDKSGKYKMLIIIRNDRYEIDEEKRIIYLKDFKLSLSFNGKLKWRGKQGRLEIIYNEARRSWYAYIPVEVQNDVKAEDKLKASIDLGIINLATVYVEDGSWYIFKGGSVLSQYEYYSKRISVAQKTLARHKQGRSREMKLLHEKRKRFLKHALNSMVRKIMEEFKNKGVGEIAIGYPKEISKDHGNKLTVNFWNYGYIIRRFEGVGEELGVKVVKVDEAWTSKTCSLCGEAHDDGRIKRGLYRCLRIGKVINADLNGAINILHIPESLGAGSRGQLTVRDRGNGLKTQPAVYRWTNGAGWVSSPTSYEVMKMKAVNCKPMNRHKGTFTLLEHHHHHH,not soluble
8,MKTSYDDTRQHLLDTGYRIMAVKGFSGVGLNEILQSAGVPKGSFYHYFKSKEQFGQALLEDYFRVYLADMDQRFSAPGLNARERLMSYWQKWLDNACPPCDEQRCLVVKLSAEVADLSESMRITLRDGSDGIIERLVGCLGQGRDDGSLAPCDARHMASALYQLWLGASLLSKLHRSPGPLETAMQTTRSLLEI,soluble
9,MGSDKIHHHHHHMMNERIKQRRKELGLTQPSIAKTIGLTKATISLWESGSTSPKGENLHALAKALRCAPEFLLFGNDSIKPEPNAEWAGGFETWGSNSPLGDDEVEIPFYMEVELAAGDGIIDCREYQGPKLRFAKSTLKRQGVTSDHAACVKVNGNSMEPVLPNGSTVGVDTAHTDIVDGKMYAINHDGMLRVKMLYKLPGGGLRLRSYNLDEYPDERLDAEELKQVKVIGKVFWYSVLV,not soluble
10,MKTWLPTSTAGSLPKPSWLAQPETLWSPWKLSSEELLAGKRDALRLSLDDQLRAGIDIVSDGEQTRQHFVTTFIEHLSGVDFAKREIVKIRNRYEASVPTVVGAVERQKPVFVEDARYLRQLTSQPIKWALPGPMTMIDTLYDNHYKSREKLAWEFAKILNQEAKELEAAGVDIIQFDEPAFNVFFDEVNDWGIAALERATEGLKCETAVHICYGYGIKANTDWKKTLGSEWRQYEEAFPQLQKSSLDIISLECHNSRVPMDLLELIRGKKVMVGAIDVASHAIETPEEVAGTLRKALAFVDADKLYPSTNCGMAPLPRHVATGKLHALSAGAEIIRRELAAK,not soluble
11,MSWTVDIPKEALPDLPPLPDGLQQQFENVIARDAKQQPSWDKATAETVRKILESVPPIVVAPEVRELKQHLADVANGRAFLLQGGDCAETFESNTEPHIRANIKTLLQMAVVLTYGASTPVVKMARIAGQYAKPRSSDLDANGLPNYRGDIVNGVEATEEARRHDPARMIRAYANSSAASNLVRALTSSGTADLHRLTGWNREFVASSPAGARYEALAQEIERGLRFMSACGVNDHTLHSADIFCSHEALVVDYERAMLRLAEDEEGNVELYDLSAHQLWIGERTRGLDDFHVNFAAMIANPIGIKIGPTATPEEVVAYANKLDPNFVPGRLTIVARMGHDKVRDVLPGIVKAVEESGHKVIWQSDPMHGNTFTSSNGYKTRHFDKVIDEVQGFFEVHRALGTHPGGIHIEFTGENVTECLGGAEDITDVDLPGRYESACDPRLNTQQSLELSFLVAEMLRN,not soluble
12,MGSDKIHHHHHHMLIEIPNVFSKQEVNQLREQLDARTWIDGNQTSGMMASTRKRNQQLDKDDPVALQIGELIMARLLAHPLFVSAALPLQFYPPLFNRYQGGDTFGYHIDNAIRSTSDGMVRTDLSATLFLSELNAYEGGELVIQDTYGQQSIKLAAGSLVLYPSTSLHQVTPVTSGERTSAFMWLQSMVRDEGQRRLLFQLDQSIQTLTAQQAAEQELFNLTGVYHNLLRRWSEL,not soluble
13,MPRSTWFKALLLLVALWAPLSQAETGWQPIQETIRKSDKDNRQYQAIRLDNGMVVLLVSDPQAVKSLSALVVPVGSLEDPEAYQGLAHYLEHMSLMGSKKYPQADSLAEYLKMHGGSHNASTAPYRTAFYLEVENDALPGAVDRLADAIAEPLLDKKYAERERNAVNAELTMARTRDGMRMAQVSAETINPAHPGSKFSGGNLETLSDKPGNPVQQALKDFHEKYYSANLMKAVIYSNKPLPELAKMAADTFGRVPNKESKKPEITVPVVTDAQKGIIIHYVPALPRKVLRVEFRIDNNSAKFRSKTDELITYLIGNRSPGTLSDWLQKQGLVEGISANSDPIVNGNSGVLAISASLTDKGLANRDQVVAAIFSYLNLLREKGIDKQYFDELANVLDIDFRYPSITRDMDYVEWLADTMIRVPVEHTLDAVNIADRYDAKAVKERLAMMTPQNARIWYISPKEPHNKTAYFVDAPYQVDKISAQTFADWQKKAADIALSLPELNPYIPDDFSLIKSEKKYDHPELIVDESNLRVVYAPSRYFASEPKADVSLILRNPKAMDSARNQVMFALNDYLAGLALDQLSNQASVGGISFSTNANNGLMVNANGYTQRLPQLFQALLEGYFSYTATEDQLEQAKSWYNQMMDSAEKGKAFEQAIMPAQMLSQVPYFSRDERRKILPSITLKEVLAYRDALKSGARPEFMVIGNMTEAQATTLARDVQKQLGADGSEWCRNKDVVVDKKQSVIFEKAGNSTDSALAAVFVPTGYDEYTSSAYSSLLGQIVQPWFYNQLRTEEQLGYAVFAFPMSVGRQWGMGFLLQSNDKQPSFLWERYKAFFPTAEAKLRAMKPDEFAQIQQAVITQMLQAPQTLGEEASKLSKDFDRGNMRFDSRDKIVAQIKLLTPQKLADFFHQAVVEPQGMAILSQISGSQNGKAEYVHPEGWKVWENVSALQQTMPLMSEKNE,soluble

# Source: the DeepSol protein solubility set
